± gives the uncertainty stated by the source.
B1: Heterogeneous nuclear ribonucleoprotein U-like protein 2, residues 1 to 40; numbered along this chain, Q1KMD3 (parent)
chain: MEVKRLKVTELRSELQRRGLDSRGLKVDLAQRLQEALDAE

Variants of: B1
Test: abundance fitness (aPCA) (normalised: wild type 0, dead -1); higher = more abundant; growth selection in yeast, the domain comes from the species named
Conditions: Homo sapiens

Variant	abundance fitness
G19D	-0.006 ± 0.12
G19T	-0.521 ± 0.07
G19A	-0.369 ± 0.051
G19L	-0.64 ± 0.061
G19M	-0.676 ± 0.15
G19P	-0.555 ± 0.062
G19V	-0.789 ± 0.063
G19I	-1.12 ± 0.16
G19R	-0.444 ± 0.052
G19H	-0.196 ± 0.084
G19K	-0.545 ± 0.22
G19S	-0.276 ± 0.061
G19Q	-0.178 ± 0.074
G19E	-0.396 ± 0.084
G19C	-0.379 ± 0.11
G19Y	-1.04 ± 0.19
D21Y	-0.204 ± 0.35
D21W	-0.74 ± 0.064
D21A	-0.41 ± 0.064
D21I	-0.871 ± 0.14
D21G	-0.572 ± 0.055
D21F	-0.591 ± 0.22
D21L	-0.557 ± 0.059
D21H	-0.422 ± 0.12

Variant	abundance fitness
D21M	-0.453 ± 0.069
D21K	-0.428 ± 0.13
D21C	-0.068 ± 0.097
D21T	-0.217 ± 0.099
D21R	-0.645 ± 0.053
T9W	-0.103 ± 0.06
T9E	0.113 ± 0.053
T9I	0.102 ± 0.15
T9P	-0.132 ± 0.066
T9R	-0.012 ± 0.049
T9G	-0.017 ± 0.05
T9Y	-0.135 ± 0.14
T9C	-0.054 ± 0.099
T9K	0.099 ± 0.12
T9V	-0.153 ± 0.056
T9Q	0.022 ± 0.068
T9H	0.163 ± 0.13
T9L	-0.27 ± 0.067
T9A	-0.04 ± 0.053
T9M	0.074 ± 0.12
T9S	-0.083 ± 0.054
V3A	-0.107 ± 0.055
V3F	-0.374 ± 0.17
V3S	-0.245 ± 0.062

Variant	abundance fitness
V3Q	-0.328 ± 0.082
V3W	-0.432 ± 0.053
V3G	-0.325 ± 0.048
V3R	-0.567 ± 0.05
V3P	-0.077 ± 0.063
V3C	-0.357 ± 0.1
V3L	-0.122 ± 0.063
V3E	-0.279 ± 0.07
V3I	0.048 ± 0.13
V3D	-0.202 ± 0.085
V3T	-0.114 ± 0.073
V3K	-0.501 ± 0.1
V3Y	-0.226 ± 0.088
V3H	-0.603 ± 0.19
E2Y	-0.161 ± 0.085
E2A	-0.33 ± 0.061
E2S	-0.243 ± 0.082
E2G	-0.371 ± 0.06
E2P	-0.844 ± 0.1
E2I	-0.271 ± 0.12
E2H	-0.201 ± 0.15
E2W	-0.263 ± 0.067
E2C	-0.388 ± 0.088
E2K	-0.432 ± 0.079

Variant	abundance fitness
E2R	-0.365 ± 0.07
E2Q	-0.193 ± 0.091
E2T	-0.243 ± 0.13
E2L	-0.294 ± 0.068
E2V	-0.336 ± 0.094
E14C	-0.489 ± 0.069
E14W	-0.942 ± 0.09
E14S	-0.6 ± 0.075
E14I	-0.551 ± 0.1
E14F	-0.752 ± 0.14
E14K	-0.782 ± 0.08
E14M	-0.274 ± 0.081
E14V	-0.845 ± 0.061
E14G	-0.743 ± 0.054
E14H	-0.512 ± 0.11
E14L	-0.311 ± 0.058
E14A	-0.34 ± 0.053
E14T	-0.869 ± 0.077
E14Y	-0.634 ± 0.088
E14D	-0.635 ± 0.075
E14R	-0.752 ± 0.051
E14P	-0.953 ± 0.11
L20H	-0.572 ± 0.13
L20Y	-0.462 ± 0.081

Variant	abundance fitness
L20P	-0.65 ± 0.07
L20Q	-0.364 ± 0.082
L20S	-0.496 ± 0.061
L20E	-0.383 ± 0.057
L20D	-0.304 ± 0.067
L20I	-0.151 ± 0.072
L20W	-0.624 ± 0.071
L20V	-0.358 ± 0.054
L20C	-0.265 ± 0.062
L20N	-0.77 ± 0.11
L20F	-0.353 ± 0.089
L20G	-0.51 ± 0.052
L20T	-0.563 ± 0.067
L20A	-0.352 ± 0.059
L20R	-0.558 ± 0.05
L20M	-0.033 ± 0.076
S22H	0.08 ± 0.12
S22P	0.12 ± 0.085
S22L	-0.153 ± 0.065
S22C	-0.08 ± 0.1
S22E	-0.02 ± 0.056
S22G	-0.052 ± 0.053
S22M	-0.064 ± 0.1
S22K	-0.333 ± 0.079

Variant	abundance fitness
S22F	0.176 ± 0.28
S22A	0.063 ± 0.054
R17K	0.112 ± 0.06
R17Q	0.008 ± 0.069
R17L	-0.129 ± 0.054
R17A	0.053 ± 0.053
R17W	-0.521 ± 0.063
R17I	-0.173 ± 0.095
R17V	-0.219 ± 0.053
R17D	-0.218 ± 0.12
R17M	0.006 ± 0.058
R17S	-0.092 ± 0.058
R17G	-0.252 ± 0.056
R17T	-0.184 ± 0.07
R17H	-0.276 ± 0.15
R17E	-0.121 ± 0.062
R17C	-0.282 ± 0.083
R17P	-0.432 ± 0.085
R17Y	-0.455 ± 0.099
R17N	-0.77 ± 0.44
L11K	-0.495 ± 0.074
L11S	-0.438 ± 0.059
L11Q	-0.448 ± 0.071
L11D	-0.436 ± 0.085

Variant	abundance fitness
L11G	-0.502 ± 0.046
L11M	-0.055 ± 0.062
L11I	-0.109 ± 0.09
L11R	-0.641 ± 0.049
L11A	-0.458 ± 0.052
L11C	-0.988 ± 0.15
L11N	-0.435 ± 0.091
L11H	-0.827 ± 0.22
L11F	-0.574 ± 0.16
L11P	-0.584 ± 0.065
L11E	-0.336 ± 0.056
L11V	-0.375 ± 0.059
L11W	-1.08 ± 0.071
L11T	-0.436 ± 0.082
K7N	0.305 ± 0.11
K7S	0.141 ± 0.056
K7Q	0.067 ± 0.08
K7I	-0.388 ± 0.15
K7V	-0.274 ± 0.054
K7P	-0.065 ± 0.06
K7G	0.015 ± 0.047
K7A	-0.069 ± 0.05
K7L	-0.143 ± 0.052
K7R	-0.153 ± 0.051

Variant	abundance fitness
K7C	-0.158 ± 0.068
K7F	-0.484 ± 0.12
K7D	0.135 ± 0.072
M1V	-0.277 ± 0.053
M1S	-0.589 ± 0.27
M1R	-0.236 ± 0.061
M1W	-0.354 ± 0.091
M1Q	-0.514 ± 0.11
M1Y	-0.749 ± 0.41
M1L	-0.339 ± 0.097
M1T	-0.564 ± 0.13
R5G	-0.021 ± 0.048
R5A	0.005 ± 0.048
R5P	-0.435 ± 0.074
R5V	-0.35 ± 0.059
R5M	-0.038 ± 0.096
R5E	0.077 ± 0.061
R5F	-0.302 ± 0.15
R5N	-0.03 ± 0.19
R5C	-0.129 ± 0.064
R5Q	0.006 ± 0.055
R5Y	-0.247 ± 0.16
R5L	-0.031 ± 0.059
R5W	-0.256 ± 0.056

Variant	abundance fitness
R5D	0.181 ± 0.19
R5S	0.046 ± 0.055
R5I	-0.237 ± 0.096
R5K	0.194 ± 0.08
K4P	-0.37 ± 0.074
K4I	-0.317 ± 0.098
K4M	0.091 ± 0.11
K4Y	-0.112 ± 0.095
K4T	0.019 ± 0.088
K4Q	-0.028 ± 0.073
K4R	-0.152 ± 0.051
K4F	-0.182 ± 0.17
K4H	0.335 ± 0.46
K4W	-0.097 ± 0.058
K4D	-0.082 ± 0.073
K4A	-0.06 ± 0.049
K4L	-0.123 ± 0.059
K4G	-0.126 ± 0.047
K4C	-0.181 ± 0.067
K4E	0.09 ± 0.062
V8S	-0.167 ± 0.057
V8T	0.033 ± 0.074
V8Q	-0.169 ± 0.062
V8M	-0.04 ± 0.065

Variant	abundance fitness
V8F	-0.289 ± 0.12
V8K	-0.163 ± 0.11
V8D	0.024 ± 0.075
V8G	-0.354 ± 0.05
V8A	-0.077 ± 0.062
V8C	-0.146 ± 0.065
V8L	-0.025 ± 0.054
V8I	-0.265 ± 0.2
V8W	-0.435 ± 0.056
V8N	-0.27 ± 0.16
V8Y	0.072 ± 0.12
V8R	-0.334 ± 0.049
V8P	-0.298 ± 0.069
E10K	-1.08 ± 0.13
E10N	-0.726 ± 0.25
E10A	-0.336 ± 0.056
E10W	-0.599 ± 0.066
E10Y	-0.869 ± 0.21
E10L	-0.641 ± 0.057
E10T	-0.305 ± 0.079
E10Q	-0.023 ± 0.098
E10S	-0.512 ± 0.066
E10R	-0.619 ± 0.051
E10M	-0.329 ± 0.072

Variant	abundance fitness
E10V	-0.376 ± 0.059
E10P	-0.758 ± 0.088
L15K	-0.651 ± 0.095
L15T	-0.586 ± 0.13
L15C	-0.25 ± 0.079
L15G	-0.614 ± 0.049
L15Y	-0.582 ± 0.12
L15A	-0.494 ± 0.053
L15D	-0.344 ± 0.069
L15M	-0.389 ± 0.069
L15W	-1.04 ± 0.068
L15E	-0.491 ± 0.054
L15R	-0.815 ± 0.054
L15P	-0.312 ± 0.075
L15Q	-0.405 ± 0.073
R18E	-0.571 ± 0.062
R18H	-0.726 ± 0.086
R18F	-0.685 ± 0.13
R18L	-0.228 ± 0.063
R18M	-0.215 ± 0.079
R18Y	-0.652 ± 0.1
R18Q	-0.614 ± 0.099
R18S	-0.615 ± 0.067
R18W	-1.08 ± 0.084

Variant	abundance fitness
R18I	-0.721 ± 0.32
R18G	-0.481 ± 0.052
R18K	-0.356 ± 0.088
R18C	-0.668 ± 0.092
R18A	-0.699 ± 0.066
R18P	-0.436 ± 0.097
R18T	-0.627 ± 0.09
R12P	-0.751 ± 0.081
R12A	-0.212 ± 0.053
R12Q	0.036 ± 0.07
R12L	-0.495 ± 0.06
R12F	-0.574 ± 0.12
R12H	-0.339 ± 0.15
R12V	-0.112 ± 0.06
R12E	-0.147 ± 0.058
R12W	-0.845 ± 0.066
R12T	-0.165 ± 0.065
R12D	-0.403 ± 0.073
R12G	-0.507 ± 0.052
R12S	-0.332 ± 0.065
L6S	-0.476 ± 0.059
L6F	-0.063 ± 0.15
L6T	0.024 ± 0.18
L6R	-0.572 ± 0.052

Variant	abundance fitness
L6G	-0.485 ± 0.049
L6K	-0.144 ± 0.089
L6W	-0.281 ± 0.056
L6C	-1.02 ± 0.13
L6Q	-0.198 ± 0.075
L6Y	-0.46 ± 0.15
L6H	-0.496 ± 0.12
L6E	-0.26 ± 0.066
L6N	-0.236 ± 0.14
L6V	-0.425 ± 0.06
L6D	-0.845 ± 0.23
L6M	0.348 ± 0.11
L6P	-0.48 ± 0.074
L6I	-0.7 ± 0.31
Q16I	0.169 ± 0.12
Q16M	-0.013 ± 0.079
Q16N	-0.074 ± 0.13
Q16V	-0.077 ± 0.059
Q16W	-0.539 ± 0.058
Q16L	-0.09 ± 0.068
Q16R	-0.104 ± 0.054
Q16Y	-0.405 ± 0.39
Q16D	-0.079 ± 0.082
Q16T	-0.03 ± 0.061

Variant	abundance fitness
Q16A	-0.047 ± 0.053
Q16C	-0.299 ± 0.09
Q16H	-0.178 ± 0.24
Q16G	-0.171 ± 0.048
Q16S	-0.032 ± 0.071
Q16E	0.098 ± 0.055
S13G	0.035 ± 0.052
S13E	0.262 ± 0.066
S13F	-0.04 ± 0.13
S13M	-0.058 ± 0.15
S13T	0.022 ± 0.059
S13Q	0.146 ± 0.062
S13K	0.085 ± 0.07
S13P	-0.385 ± 0.1
S13R	0.055 ± 0.05
S13I	0.039 ± 0.1
S13N	0.016 ± 0.087
S13W	-0.033 ± 0.055
S13Y	0.065 ± 0.1
S13L	0.093 ± 0.058
S13A	0.153 ± 0.052
S13V	-0.006 ± 0.056
